B1: ADD1 (parent)
chain: GEGTGSPPKWQIGEQEFEALMRML

Variants of: B1
Test: protein stability index of a GFP-peptide fusion (GPS, HEK-293T) (PSI 1-6); higher = more stable
Conditions: c terminus: a fixed tail appended
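Note: lentivirally expressed fusions sorted by FACS into six bins by GFP to DsRed ratio, PSI derived from sequencing read proportions per bin multiplied by bin number.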

Q: Which protein stability index does the source give for GEGTGSPPKWQIGEQEFEAAMRML [L20A] here?
A: The protein stability index was 4.61.

Q: Which protein stability index does the source give for GEGTGSPPKWQIGEQEFEAKMRML [L20K] here?
A: Its protein stability index is 4.4.

Q: For GEGTGSPPKWQIGEQEFEAHMRML [L20H], which protein stability index is on record?
A: Its protein stability index is 4.97.

Q: Which protein stability index does the source give for GEGTGSPPKWQIGEQEFEACMRML [L20C] here?
A: Its protein stability index is 4.05.

Q: With GEGTGSPPKWQIGEQEFEAIMRML [L20I] as the variant, how does the protein stability index read?
A: The protein stability index was 2.46.

Q: Which protein stability index does the source give for GEGTGSPPKWQIGEQEFEAFMRML [L20F] here?
A: The protein stability index was 3.07.

Q: With GEGTGSPPKWQIGEQEFEAGMRML [L20G] as the variant, how does the protein stability index read?
A: The protein stability index was 4.67.

Q: For GEGTGSPPKWQIGEQEFEADMRML [L20D], which protein stability index is on record?
A: Its protein stability index is 4.8.

Q: For GEGTGSPPKWQIGEQEFEAEMRML [L20E], which protein stability index is on record?
A: Its protein stability index is 4.77.

Q: Which protein stability index does the source give for GEGTGSPPKWQIGEQEFSALMRML [E18S] here?
A: Its protein stability index is 3.17.

Q: With GEGTGSPPKWQIGEQEFRALMRML [E18R] as the variant, how does the protein stability index read?
A: The protein stability index was 2.07.

Q: With GEGTGSPPKWQIGEQEFIALMRML [E18I] as the variant, how does the protein stability index read?
A: The protein stability index was 2.37.

Q: Which protein stability index does the source give for GEGTGSPPKWQIGEQEFTALMRML [E18T] here?
A: The protein stability index was 3.

Q: With GEGTGSPPKWQIGEQEFNALMRML [E18N] as the variant, how does the protein stability index read?
A: Its protein stability index is 2.47.

Q: Which protein stability index does the source give for GEGTGSPPKWQIGEQEFMALMRML [E18M] here?
A: The protein stability index was 2.95.

Q: Which protein stability index does the source give for GEGTGSPPKWQIGEQEFGALMRML [E18G] here?
A: The protein stability index was 2.69.

Q: For GEGTGSPPKWQIGEQEFCALMRML [E18C], which protein stability index is on record?
A: Its protein stability index is 2.82.

Q: For GEGTGSPPKWQIGEQEFVALMRML [E18V], which protein stability index is on record?
A: The protein stability index was 2.3.

Q: For GEGTGSPPKWQIGEQEFKALMRML [E18K], which protein stability index is on record?
A: Its protein stability index is 2.9.

Q: For GEGTGSPPKWQIGEQEFLALMRML [E18L], which protein stability index is on record?
A: The protein stability index was 2.41.

Q: Which protein stability index does the source give for GEGTGSPPKWQIGEQEFHALMRML [E18H] here?
A: The protein stability index was 2.1.

Q: Which protein stability index does the source give for GEGTGSPPKWQIGEQEFWALMRML [E18W] here?
A: The protein stability index was 1.85.

Q: Which protein stability index does the source give for GEGTGSPPKWQIGEQEFAALMRML [E18A] here?
A: The protein stability index was 2.76.

Q: With GEGTGSPPKWQIGEQEFFALMRML [E18F] as the variant, how does the protein stability index read?
A: Its protein stability index is 1.93.

Q: For GEGTGSPPKWQIGEQEFDALMRML [E18D], which protein stability index is on record?
A: Its protein stability index is 3.69.

Q: With GEGTGSPPKWQIGEQEFPALMRML [E18P] as the variant, how does the protein stability index read?
A: Its protein stability index is 3.39.

Q: With GEGTGSPPKWQIGEQEFYALMRML [E18Y] as the variant, how does the protein stability index read?
A: Its protein stability index is 2.08.

Q: Which protein stability index does the source give for GEGTGSPPKWQIGEQEFQALMRML [E18Q] here?
A: The protein stability index was 3.22.

Q: Which protein stability index does the source give for GEGTGSPPKQQIGEQEFEALMRML [W10Q] here?
A: Its protein stability index is 3.5.

Q: For GEGTGSPPKVQIGEQEFEALMRML [W10V], which protein stability index is on record?
A: Its protein stability index is 3.67.

Q: Which protein stability index does the source give for GEGTGSPPKNQIGEQEFEALMRML [W10N] here?
A: The protein stability index was 4.19.

Q: With GEGTGSPPKRQIGEQEFEALMRML [W10R] as the variant, how does the protein stability index read?
A: Its protein stability index is 4.22.

Q: With GEGTGSPPKPQIGEQEFEALMRML [W10P] as the variant, how does the protein stability index read?
A: The protein stability index was 3.81.

Q: Which protein stability index does the source give for GEGTGSPPKYQIGEQEFEALMRML [W10Y] here?
A: The protein stability index was 3.14.

Q: For GEGTGSPPKSQIGEQEFEALMRML [W10S], which protein stability index is on record?
A: Its protein stability index is 4.2.

Q: With GEGTGSPPKTQIGEQEFEALMRML [W10T] as the variant, how does the protein stability index read?
A: Its protein stability index is 3.42.

Q: For GEGTGSPPKWQIGEQKFEALMRML [E16K], which protein stability index is on record?
A: The protein stability index was 2.53.

Q: With GEGTGSPPKWQIGEQIFEALMRML [E16I] as the variant, how does the protein stability index read?
A: The protein stability index was 1.31.

Q: For GEGTGSPPKWQIGEQDFEALMRML [E16D], which protein stability index is on record?
A: Its protein stability index is 3.52.

Q: With GEGTGSPPKWQIGEQYFEALMRML [E16Y] as the variant, how does the protein stability index read?
A: Its protein stability index is 1.71.

Q: With GEGTGSPPKWQIGEQMFEALMRML [E16M] as the variant, how does the protein stability index read?
A: The protein stability index was 1.74.

Q: Which protein stability index does the source give for GEGTGSPPKWQIGEQWFEALMRML [E16W] here?
A: The protein stability index was 2.54.

Q: With GEGTGSPPKWQIGEQCFEALMRML [E16C] as the variant, how does the protein stability index read?
A: Its protein stability index is 2.75.

Q: With GEGTGSPPKWQIGEQTFEALMRML [E16T] as the variant, how does the protein stability index read?
A: Its protein stability index is 2.4.

Q: For GEGTGSPPKWQIGEQAFEALMRML [E16A], which protein stability index is on record?
A: The protein stability index was 2.33.

Q: With GEGTGSPPKWQIGEQPFEALMRML [E16P] as the variant, how does the protein stability index read?
A: The protein stability index was 2.61.

Q: For GEGTGSPPKWQIGEQGFEALMRML [E16G], which protein stability index is on record?
A: Its protein stability index is 2.5.

Q: With GEGTGSPPKWQIGEQHFEALMRML [E16H] as the variant, how does the protein stability index read?
A: Its protein stability index is 2.8.

Q: Which protein stability index does the source give for GEGTGSPPKWQIGEQQFEALMRML [E16Q] here?
A: Its protein stability index is 2.37.

Q: For GEGTGSPPKWQIGEQLFEALMRML [E16L], which protein stability index is on record?
A: Its protein stability index is 1.4.

Q: For GEGTGSPPKWQIGEQSFEALMRML [E16S], which protein stability index is on record?
A: Its protein stability index is 3.06.

Q: For GEGTGSPPKWQIGEQVFEALMRML [E16V], which protein stability index is on record?
A: Its protein stability index is 1.6.

Q: Which protein stability index does the source give for GEGTGSPPKWQIGEQRFEALMRML [E16R] here?
A: The protein stability index was 2.51.

Q: For GEGTGSPPKWQIGEQNFEALMRML [E16N], which protein stability index is on record?
A: The protein stability index was 3.1.

Q: For GEGTGSPPKWQIGEQFFEALMRML [E16F], which protein stability index is on record?
A: The protein stability index was 1.59.

Q: For GEGTGSPPKWQFGEQEFEALMRML [I12F], which protein stability index is on record?
A: The protein stability index was 3.09.

Q: With GEGTGSPPKWQVGEQEFEALMRML [I12V] as the variant, how does the protein stability index read?
A: Its protein stability index is 3.22.

Q: With GEGTGSPPKWQSGEQEFEALMRML [I12S] as the variant, how does the protein stability index read?
A: Its protein stability index is 3.83.

Q: With GEGTGSPPKWQTGEQEFEALMRML [I12T] as the variant, how does the protein stability index read?
A: Its protein stability index is 3.7.

Q: For GEGTGSPPKWQKGEQEFEALMRML [I12K], which protein stability index is on record?
A: The protein stability index was 3.03.

Q: For GEGTGSPPKWQCGEQEFEALMRML [I12C], which protein stability index is on record?
A: The protein stability index was 3.27.

Q: Which protein stability index does the source give for GEGTGSPPKWQWGEQEFEALMRML [I12W] here?
A: Its protein stability index is 2.81.

Q: For GEGTGSPPKWQRGEQEFEALMRML [I12R], which protein stability index is on record?
A: Its protein stability index is 3.12.

Q: With GEGTGSPPKWQEGEQEFEALMRML [I12E] as the variant, how does the protein stability index read?
A: Its protein stability index is 4.45.

Q: For GEGTGSPPKWQPGEQEFEALMRML [I12P], which protein stability index is on record?
A: The protein stability index was 3.72.

Q: With GEGTGSPPKWQDGEQEFEALMRML [I12D] as the variant, how does the protein stability index read?
A: Its protein stability index is 4.45.

Q: Which protein stability index does the source give for GEGTGSPPKWQNGEQEFEALMRML [I12N] here?
A: The protein stability index was 3.55.

Q: For GEGTGSPPKWQGGEQEFEALMRML [I12G], which protein stability index is on record?
A: Its protein stability index is 4.08.

Q: With GEGTGSPPKWQLGEQEFEALMRML [I12L] as the variant, how does the protein stability index read?
A: Its protein stability index is 3.06.

Q: Which protein stability index does the source give for GEGTGSPPKWQAGEQEFEALMRML [I12A] here?
A: Its protein stability index is 3.9.

Q: With GEGTGSPPKWQYGEQEFEALMRML [I12Y] as the variant, how does the protein stability index read?
A: The protein stability index was 3.69.

Q: For GEGTGSPPKWQQGEQEFEALMRML [I12Q], which protein stability index is on record?
A: Its protein stability index is 4.11.

Q: With GEGTGSPPKWQHGEQEFEALMRML [I12H] as the variant, how does the protein stability index read?
A: Its protein stability index is 3.75.

Q: With GEGTGSPPKWQMGEQEFEALMRML [I12M] as the variant, how does the protein stability index read?
A: The protein stability index was 3.38.

Q: With GEGTGSPPKWQIYEQEFEALMRML [G13Y] as the variant, how does the protein stability index read?
A: Its protein stability index is 2.66.

Q: For GEGTGSPPKWQIDEQEFEALMRML [G13D], which protein stability index is on record?
A: The protein stability index was 3.65.

Q: Which protein stability index does the source give for GEGTGSPPKWQIVEQEFEALMRML [G13V] here?
A: The protein stability index was 2.5.

Q: With GEGTGSPPKWQIIEQEFEALMRML [G13I] as the variant, how does the protein stability index read?
A: Its protein stability index is 2.92.

Q: Which protein stability index does the source give for GEGTGSPPKWQIFEQEFEALMRML [G13F] here?
A: Its protein stability index is 2.69.

Q: Which protein stability index does the source give for GEGTGSPPKWQIQEQEFEALMRML [G13Q] here?
A: The protein stability index was 3.58.

Q: Which protein stability index does the source give for GEGTGSPPKWQIKEQEFEALMRML [G13K] here?
A: Its protein stability index is 3.21.

Q: With GEGTGSPPKWQIWEQEFEALMRML [G13W] as the variant, how does the protein stability index read?
A: The protein stability index was 3.37.

Q: For GEGTGSPPKWQIEEQEFEALMRML [G13E], which protein stability index is on record?
A: Its protein stability index is 4.05.

Q: Which protein stability index does the source give for GEGTGSPPKWQILEQEFEALMRML [G13L] here?
A: The protein stability index was 2.84.

Q: With GEGTGSPPKWQINEQEFEALMRML [G13N] as the variant, how does the protein stability index read?
A: Its protein stability index is 2.78.

Q: For GEGTGSPPKWQIPEQEFEALMRML [G13P], which protein stability index is on record?
A: Its protein stability index is 3.74.

Q: Which protein stability index does the source give for GEGTGSPPKWQITEQEFEALMRML [G13T] here?
A: Its protein stability index is 2.74.

Q: For GEGTGSPPKWQIHEQEFEALMRML [G13H], which protein stability index is on record?
A: Its protein stability index is 3.29.

Q: Which protein stability index does the source give for GEGTGSPPKWQIREQEFEALMRML [G13R] here?
A: The protein stability index was 2.99.

Q: Which protein stability index does the source give for GEGTGSPPKWQIAEQEFEALMRML [G13A] here?
A: The protein stability index was 3.85.

Q: For GEGTGSPPKWQIMEQEFEALMRML [G13M], which protein stability index is on record?
A: Its protein stability index is 2.94.

Q: With GEGTGSPPKWQISEQEFEALMRML [G13S] as the variant, how does the protein stability index read?
A: The protein stability index was 3.22.

Q: For GEGTGSPPKWQICEQEFEALMRML [G13C], which protein stability index is on record?
A: The protein stability index was 3.22.

Q: Which protein stability index does the source give for GEGTGSPPKWFIGEQEFEALMRML [Q11F] here?
A: The protein stability index was 3.22.

— the supplement of paper PMC10567573
